Target: GFP-NAIP2 (mouse) (UniProt Q9QUK4)
Test: co-IP

Sequence of UniProt Q9QUK4 (Q9QUK4 whole entry): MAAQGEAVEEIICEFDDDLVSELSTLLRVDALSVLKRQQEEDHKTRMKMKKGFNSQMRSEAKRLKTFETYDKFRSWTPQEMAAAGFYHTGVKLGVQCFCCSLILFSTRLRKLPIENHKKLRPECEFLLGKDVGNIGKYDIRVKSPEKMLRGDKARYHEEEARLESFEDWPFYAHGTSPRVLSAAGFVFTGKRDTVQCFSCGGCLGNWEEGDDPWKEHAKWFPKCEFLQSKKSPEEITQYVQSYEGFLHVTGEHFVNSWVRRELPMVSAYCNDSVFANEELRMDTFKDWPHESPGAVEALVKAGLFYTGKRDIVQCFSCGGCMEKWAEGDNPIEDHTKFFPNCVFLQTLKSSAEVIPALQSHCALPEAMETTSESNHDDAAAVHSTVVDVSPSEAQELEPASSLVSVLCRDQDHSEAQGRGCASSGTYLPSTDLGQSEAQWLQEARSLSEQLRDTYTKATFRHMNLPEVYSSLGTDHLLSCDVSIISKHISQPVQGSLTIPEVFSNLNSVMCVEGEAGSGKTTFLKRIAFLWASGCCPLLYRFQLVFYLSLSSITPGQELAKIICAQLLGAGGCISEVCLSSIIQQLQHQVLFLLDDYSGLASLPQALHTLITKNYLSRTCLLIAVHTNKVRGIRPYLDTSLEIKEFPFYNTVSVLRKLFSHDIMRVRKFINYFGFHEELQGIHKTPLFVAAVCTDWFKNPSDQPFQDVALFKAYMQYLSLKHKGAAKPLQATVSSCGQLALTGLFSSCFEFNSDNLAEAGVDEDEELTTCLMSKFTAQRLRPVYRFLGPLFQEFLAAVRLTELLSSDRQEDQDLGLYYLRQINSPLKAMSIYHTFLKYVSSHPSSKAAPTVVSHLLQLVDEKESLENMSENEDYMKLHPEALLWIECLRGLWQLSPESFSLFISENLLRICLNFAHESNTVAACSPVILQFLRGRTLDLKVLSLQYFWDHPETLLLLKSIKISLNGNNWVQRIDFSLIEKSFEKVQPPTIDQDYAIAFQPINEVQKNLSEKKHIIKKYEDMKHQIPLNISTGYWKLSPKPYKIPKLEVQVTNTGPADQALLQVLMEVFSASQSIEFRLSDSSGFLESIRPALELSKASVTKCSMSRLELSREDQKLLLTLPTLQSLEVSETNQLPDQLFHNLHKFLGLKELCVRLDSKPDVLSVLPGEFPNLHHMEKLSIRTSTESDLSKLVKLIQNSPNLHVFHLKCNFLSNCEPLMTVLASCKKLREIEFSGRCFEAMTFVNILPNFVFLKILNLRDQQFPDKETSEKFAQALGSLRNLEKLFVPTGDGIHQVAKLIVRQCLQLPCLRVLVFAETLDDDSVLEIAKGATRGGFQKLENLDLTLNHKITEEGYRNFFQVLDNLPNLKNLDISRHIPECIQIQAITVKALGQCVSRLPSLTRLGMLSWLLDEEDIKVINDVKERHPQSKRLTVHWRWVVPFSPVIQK

Substance “GFP-PrgJ (from UniProt P41785 1-101) (ligand)” has a stoichiometry N (ligand per NAIP) of 1.
